Measured values as given in the supplement of paper PMC7125110.
± gives the standard error. Fewer inactive variants are shown than the library holds.

B1: glmS ribozyme (parent)
chain: AUAAAAGCGCCAGAACUACAGAAAUGUAGUUGACGAGGAGGAGGUUUAUCGAAUUUUCGGCGGAUGCCUCCAAA

What was measured:
Conditions in all cases: with glucosamine-6-phosphate
glucosamine-6-phosphate [1] = variants of: B1; test: self-cleavage kobs at 160 uM GlcN6P; higher = faster cleavage; RNA array
How it was run: (§1)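 Barcoded ribozyme variants were transcribed in situ on sequenced MiSeq chips by E. coli RNA polymerase. At 37 °C, a hybridised Cy3 probe tracked them while glucosamine-6-phosphate (40 μM to 10 mM) in HEPES/KCl/Mg(OAc)2 buffer flowed in and tiles were imaged over ~14 h. Per-tile medians of signals normalised to baseline and to non-cleaving reference variants were fit to one- or two-exponential decays, giving kobs. kcat and KM came from weighted Michaelis–Menten fits across concentrations.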

glucosamine-6-phosphate [2] = variants of: B1; test: self-cleavage kobs at 640 uM GlcN6P; higher = faster cleavage; RNA array
How it was run: as §1

glucosamine-6-phosphate [3] = variants of: B1; test: self-cleavage kobs at 10000 uM GlcN6P; higher = faster cleavage; RNA array
How it was run: as §1

glucosamine-6-phosphate [4] = variants of: B1; test: self-cleavage kobs at 2500 uM GlcN6P; higher = faster cleavage; RNA array
How it was run: as §1

Variant	self-cleavage kobs at 160 uM GlcN6P (glucosamine-6-phosphate [1]) [s⁻¹]	self-cleavage kobs at 640 uM GlcN6P (glucosamine-6-phosphate [2]) [s⁻¹]	self-cleavage kobs at 10000 uM GlcN6P (glucosamine-6-phosphate [3]) [s⁻¹]	self-cleavage kobs at 2500 uM GlcN6P (glucosamine-6-phosphate [4]) [s⁻¹]
C58A G59C	< 1e-05	< 1e-05	< 1e-05	–
U56A G60C	< 1e-05	< 1e-05	–	< 1e-05
G51U G60C C70U	< 1e-05	< 1e-05	–	–
G62U C68G	< 1e-05	< 1e-05	< 1e-05	–
A6G U31G G37U	–	< 1e-05	–	< 1e-05
A6C A12C A39C C67U	–	< 1e-05	< 1e-05	< 1e-05
A6U C16U G40U C67A	–	< 1e-05	–	< 1e-05
A6U G29A U31A G43C U46G C58G	–	< 1e-05	–	< 1e-05
A6U A12U G37U	–	< 1e-05	–	–
A6U A39C U56C C67G	–	< 1e-05	–	–
A6G G63C C67A	–	< 1e-05	–	–
C61U A64C C67G	< 1e-05	–	–	< 1e-05
A6G A14C G38U	–	< 1e-05	< 1e-05	–
A6U C61G C67A	–	0.000106 ± 3.9e-05	–	0.00149 ± 0.00065
A6G C16A G35U A48U	–	< 1e-05	–	< 1e-05
C58G C70A	0.000411 ± 0.00017	4.04e-05 ± 1.9e-05	–	5.93e-05 ± 1.4e-05
A53U U54G U55A U56A	0.000355 ± 7.8e-05	–	–	–
A6C G13C U47G A48U U65A	–	< 1e-05	–	–
U55C C58U	< 1e-05	–	6.55e-05 ± 8.7e-06	–
A6U C8A U31G	–	< 1e-05	–	< 1e-05

Variant	self-cleavage kobs at 160 uM GlcN6P (glucosamine-6-phosphate [1]) [s⁻¹]	self-cleavage kobs at 640 uM GlcN6P (glucosamine-6-phosphate [2]) [s⁻¹]	self-cleavage kobs at 10000 uM GlcN6P (glucosamine-6-phosphate [3]) [s⁻¹]	self-cleavage kobs at 2500 uM GlcN6P (glucosamine-6-phosphate [4]) [s⁻¹]
A64U C68U	< 1e-05	< 1e-05	–	–
A6C C10A C34G C50U U56A	–	< 1e-05	–	< 1e-05
A6C U47C U54G	–	< 1e-05	–	–
G59U U65A C67U	< 1e-05	–	–	–
G51U A53U C58A C70A	8.95e-05 ± 1.6e-05	7.01e-05 ± 2.6e-05	–	5.47e-05 ± 2.1e-05
A6G A53G C61A	–	< 1e-05	–	< 1e-05
A6U C11G C68A C70G	–	< 1e-05	–	< 1e-05
G60U A64C G66U C70A	< 1e-05	–	–	–
A6G G37A G41A	–	< 1e-05	< 1e-05	< 1e-05
C61G G62U	< 1e-05	< 1e-05	–	< 1e-05
A6U A33C A39U C71U	–	< 1e-05	–	–
A6G G37A U46A U54A	–	< 1e-05	< 1e-05	–
A6G U30G G43C G60U C71G	–	< 1e-05	–	–
A6U G32C C67G	–	< 1e-05	–	< 1e-05
A6C C16G G32U A33G G38U	–	< 1e-05	< 1e-05	–
A6U G9C C16G C71U	–	< 1e-05	–	–
C58U C61G G66A C67A	5.89e-05 ± 2e-05	0.000108 ± 3.7e-05	–	–
A6G U31A A36G A48U	–	< 1e-05	–	–
G63A G66C	< 1e-05	< 1e-05	< 1e-05	< 1e-05
U55A C58U	< 1e-05	–	7.74e-05 ± 6.6e-06	–

Variant	self-cleavage kobs at 160 uM GlcN6P (glucosamine-6-phosphate [1]) [s⁻¹]	self-cleavage kobs at 640 uM GlcN6P (glucosamine-6-phosphate [2]) [s⁻¹]	self-cleavage kobs at 10000 uM GlcN6P (glucosamine-6-phosphate [3]) [s⁻¹]	self-cleavage kobs at 2500 uM GlcN6P (glucosamine-6-phosphate [4]) [s⁻¹]
U57C G60U	< 1e-05	< 1e-05	< 1e-05	< 1e-05
A6C U31C C70A	–	7.34e-05 ± 3e-05	–	–
A6U G29A G37A G38A A42C G43U G62U C70U	–	< 1e-05	–	< 1e-05
A6G C50G C71G	–	0.000369 ± 7.4e-05	–	9.48e-05 ± 2.2e-05
G59A G62U	< 1e-05	–	–	< 1e-05
G51U G62U A64C	< 1e-05	–	–	–
A6C A14G A36G A52C	–	< 1e-05	–	< 1e-05
A6C A36C U56G	–	< 1e-05	–	< 1e-05
A6U G13U G37U A48U U69G	–	9.26e-05 ± 2.7e-05	–	–
A6G G7A C11G G32A U45G	–	< 1e-05	–	–
A6C A14U U55G	–	< 1e-05	–	–
A6U C10U G35C A48U G63A	–	< 1e-05	–	–
A6U A15C G44U	–	< 1e-05	–	< 1e-05
A6G C16G G32A	–	< 1e-05	–	< 1e-05
A6U A39C G60A	–	< 1e-05	–	–
A6G G32U C61A	–	< 1e-05	–	< 1e-05
A6C G41A C68A U69C	–	< 1e-05	< 1e-05	–
G59U G60U G62A	< 1e-05	–	–	< 1e-05
A6U C34G U47G C67U C68A	–	0.000407 ± 0.00013	–	8.02e-05 ± 2.6e-05
U55G C68A	0.000151 ± 6.4e-05	6.91e-05 ± 2.2e-05	2.8e-05 ± 1.4e-05	9.69e-05 ± 1.8e-05
